Reference: patent US20190248900A1 (Y BIOLOGICS, published 2019)
Changes are numbered by the printed parent chain.

T1: DNER (Homo sapiens (Human), UniProt Q8NFT8 35-640)
T1 sequence: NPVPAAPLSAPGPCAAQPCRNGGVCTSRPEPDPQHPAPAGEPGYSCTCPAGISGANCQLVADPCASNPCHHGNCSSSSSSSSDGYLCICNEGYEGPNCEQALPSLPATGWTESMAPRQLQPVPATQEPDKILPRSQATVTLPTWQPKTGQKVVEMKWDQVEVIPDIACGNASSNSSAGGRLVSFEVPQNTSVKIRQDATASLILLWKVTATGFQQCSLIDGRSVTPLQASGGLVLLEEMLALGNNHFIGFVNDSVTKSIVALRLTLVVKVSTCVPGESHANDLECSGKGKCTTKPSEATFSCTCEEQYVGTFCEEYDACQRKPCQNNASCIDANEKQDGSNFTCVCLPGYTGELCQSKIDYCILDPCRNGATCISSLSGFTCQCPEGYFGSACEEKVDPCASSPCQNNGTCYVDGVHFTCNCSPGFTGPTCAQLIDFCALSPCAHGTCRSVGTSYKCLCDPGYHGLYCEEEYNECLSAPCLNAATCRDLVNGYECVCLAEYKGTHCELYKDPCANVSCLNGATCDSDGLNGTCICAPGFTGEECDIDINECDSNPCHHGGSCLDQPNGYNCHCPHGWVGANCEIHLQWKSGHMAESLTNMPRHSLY

T2: SPARC (Homo sapiens (Human), UniProt P09486 18-303)
T2 sequence: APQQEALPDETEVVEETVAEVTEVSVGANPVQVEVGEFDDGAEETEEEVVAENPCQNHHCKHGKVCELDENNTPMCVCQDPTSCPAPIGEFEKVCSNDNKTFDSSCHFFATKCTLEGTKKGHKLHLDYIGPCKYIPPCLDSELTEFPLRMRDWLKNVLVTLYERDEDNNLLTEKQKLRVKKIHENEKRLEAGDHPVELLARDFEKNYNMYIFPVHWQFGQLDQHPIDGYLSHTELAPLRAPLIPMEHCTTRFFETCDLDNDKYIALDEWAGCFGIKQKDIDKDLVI

T3: SLITRK2 (Homo sapiens (Human), UniProt Q9H156 22-621)
T3 sequence: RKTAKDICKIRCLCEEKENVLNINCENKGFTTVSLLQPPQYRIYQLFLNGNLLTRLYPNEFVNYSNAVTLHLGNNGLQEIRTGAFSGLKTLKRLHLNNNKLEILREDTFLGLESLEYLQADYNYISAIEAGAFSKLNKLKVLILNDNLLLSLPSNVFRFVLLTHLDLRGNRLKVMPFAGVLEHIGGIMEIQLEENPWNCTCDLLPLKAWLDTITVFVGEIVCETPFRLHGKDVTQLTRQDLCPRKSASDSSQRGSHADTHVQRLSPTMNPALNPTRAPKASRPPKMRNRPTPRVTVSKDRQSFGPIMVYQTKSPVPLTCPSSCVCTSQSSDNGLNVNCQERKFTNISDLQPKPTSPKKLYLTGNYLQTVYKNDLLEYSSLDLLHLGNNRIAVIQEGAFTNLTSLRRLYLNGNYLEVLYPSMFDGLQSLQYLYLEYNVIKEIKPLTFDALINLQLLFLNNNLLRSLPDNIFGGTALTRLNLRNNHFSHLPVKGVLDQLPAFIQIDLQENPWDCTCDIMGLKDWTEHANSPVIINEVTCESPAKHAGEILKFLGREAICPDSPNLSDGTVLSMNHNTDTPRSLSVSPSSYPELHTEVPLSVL

T4: TLR9 (Homo sapiens (Human), UniProt Q9NR96 26-818)
T4 sequence: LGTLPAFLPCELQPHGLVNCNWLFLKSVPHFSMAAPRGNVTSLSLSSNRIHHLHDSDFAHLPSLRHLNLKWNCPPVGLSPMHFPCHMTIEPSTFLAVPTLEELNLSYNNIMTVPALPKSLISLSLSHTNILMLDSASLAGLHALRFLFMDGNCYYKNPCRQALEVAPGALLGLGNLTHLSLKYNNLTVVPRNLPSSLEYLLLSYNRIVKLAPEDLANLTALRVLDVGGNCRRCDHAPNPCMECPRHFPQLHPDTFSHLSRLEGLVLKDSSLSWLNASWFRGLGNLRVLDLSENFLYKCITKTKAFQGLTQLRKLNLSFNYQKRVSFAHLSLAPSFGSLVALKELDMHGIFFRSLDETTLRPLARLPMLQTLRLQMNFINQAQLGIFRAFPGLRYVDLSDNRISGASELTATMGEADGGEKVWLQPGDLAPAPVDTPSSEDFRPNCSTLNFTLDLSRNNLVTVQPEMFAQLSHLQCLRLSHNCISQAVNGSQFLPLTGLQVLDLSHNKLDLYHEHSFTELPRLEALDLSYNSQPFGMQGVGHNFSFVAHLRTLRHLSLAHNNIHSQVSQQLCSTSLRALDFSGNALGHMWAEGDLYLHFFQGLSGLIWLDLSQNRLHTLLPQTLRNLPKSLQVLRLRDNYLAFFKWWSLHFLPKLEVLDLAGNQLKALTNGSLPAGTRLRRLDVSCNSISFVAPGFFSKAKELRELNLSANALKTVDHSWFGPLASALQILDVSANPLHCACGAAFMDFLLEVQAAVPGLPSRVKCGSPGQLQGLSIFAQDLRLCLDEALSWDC

T5: OPTC (Homo sapiens (Human), UniProt Q9UBM4 20-332)
T5 sequence: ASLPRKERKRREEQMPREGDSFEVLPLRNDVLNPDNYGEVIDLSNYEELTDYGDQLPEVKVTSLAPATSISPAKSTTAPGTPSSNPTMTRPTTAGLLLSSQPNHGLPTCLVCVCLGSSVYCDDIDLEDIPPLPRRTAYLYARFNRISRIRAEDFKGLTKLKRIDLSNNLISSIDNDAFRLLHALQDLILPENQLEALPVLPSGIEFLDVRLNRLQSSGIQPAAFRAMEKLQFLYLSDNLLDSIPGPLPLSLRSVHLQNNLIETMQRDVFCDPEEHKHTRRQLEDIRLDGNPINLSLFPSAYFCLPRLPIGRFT

B1: PD1-41C9 (antibody, V domains shown)
VH: QMQLVESGGGVVQPGRSLRLSCAASGFTFSSYAMHWVRQAPGKGLEWVAVISYDGSNKYYADSVKGRFTISRDNSKNTLYLQMNRLRSEDTAVYYCTTTTFDSWGQGTLITVSS
VL: DIVMTQTPLSLPVTPGEAASISCRSSQSLLDSEDGNTYLDWYLQKPGQSPQLLIYTLSHRASGVPDRFSGSGSGTDFTLKISRVAAEDVGLYYCLQRMGFPYTFGQGTKLDIK
notes: scFv-phage in the screening ELISA; whole IgG in the other assays
B2: PD1-49A2 (antibody, V domains shown)
VH: B1 VH with M2V, S75P, R85S, S88A, Q106R, I110V
VL: B1 VL with T7S, A18P, L30F, E33D, A85E, L91I, L110V, D111E
notes: scFv-phage in the screening ELISA; whole IgG in the other assays; also called Parent 49A2
B3: PD1-45D6 (antibody, V domains shown)
VH: QVQLVESGGGVVQPGRSLRLSCAASGFTFSSYAMHWVRQVPGKGLEWVAVISYDGNDKYYADSVKGRFTISRDNSKNTLYLQMNSLRAEDTAVYYCVPTTFEYWGQGSQVTVSS
VL: DIVMTQTPLSLPVTPGEAASISCRSSQSLLDSDDGKTYLDWYLQKPGQSPQLLIYTLSYRASGVPDRFSGSGSGTEFNLRISRVEAEDVGIYYCMQRVEFPFTFGQGTKLDIK
notes: as for B1

Target: TLR3 (Homo sapiens (Human), UniProt O15455 24-704)
Assay: ELISA

Row | Binder | binding result
1 | B1 | no binding (tested: 1 ug/ml)
2 | B2 | no binding (tested: 1 ug/ml)
3 | B3 | no binding (tested: 1 ug/ml)

Target: T1, DNER
Assay: ELISA

Row | Binder | binding result
4 | B1 | no binding (tested: 1 ug/ml)
5 | B2 | no binding (tested: 1 ug/ml)
6 | B3 | no binding (tested: 1 ug/ml)

Target: T2, SPARC
Assay: ELISA

Row | Binder | binding result
7 | B1 | no binding (tested: 1 ug/ml)
8 | B2 | no binding (tested: 1 ug/ml)
9 | B3 | no binding (tested: 1 ug/ml)

Target: T3, SLITRK2
Assay: ELISA

Row | Binder | binding result
10 | B1 | no binding (tested: 1 ug/ml)
11 | B2 | no binding (tested: 1 ug/ml)
12 | B3 | no binding (tested: 1 ug/ml)

Target: T4, TLR9
Assay: ELISA

Row | Binder | binding result
13 | B1 | no binding (tested: 1 ug/ml)
14 | B2 | no binding (tested: 1 ug/ml)
15 | B3 | no binding (tested: 1 ug/ml)

Target: CDCP1 (Homo sapiens (Human), UniProt Q9H5V8 30-667)
Sequence (Q9H5V8 30-667 limits assumed): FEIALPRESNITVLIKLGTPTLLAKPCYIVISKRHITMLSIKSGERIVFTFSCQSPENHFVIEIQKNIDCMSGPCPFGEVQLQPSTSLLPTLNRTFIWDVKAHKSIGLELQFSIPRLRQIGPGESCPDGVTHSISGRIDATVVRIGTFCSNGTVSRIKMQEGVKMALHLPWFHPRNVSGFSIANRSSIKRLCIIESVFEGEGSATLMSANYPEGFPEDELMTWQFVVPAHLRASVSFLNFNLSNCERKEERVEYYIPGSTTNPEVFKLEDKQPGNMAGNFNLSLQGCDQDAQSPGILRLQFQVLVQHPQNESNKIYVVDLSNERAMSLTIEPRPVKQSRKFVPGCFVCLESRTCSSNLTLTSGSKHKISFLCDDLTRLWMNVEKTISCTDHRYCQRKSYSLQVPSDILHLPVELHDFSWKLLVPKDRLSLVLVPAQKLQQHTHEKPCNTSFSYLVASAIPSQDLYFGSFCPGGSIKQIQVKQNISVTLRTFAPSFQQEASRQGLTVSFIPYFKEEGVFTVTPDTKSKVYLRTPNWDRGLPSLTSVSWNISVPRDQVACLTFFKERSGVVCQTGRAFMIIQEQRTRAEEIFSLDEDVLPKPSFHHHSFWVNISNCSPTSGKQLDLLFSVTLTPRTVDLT
Assay: ELISA

Row | Binder | binding result
16 | B1 | no binding (tested: 1 ug/ml)
17 | B2 | no binding (tested: 1 ug/ml)
18 | B3 | no binding (tested: 1 ug/ml)

Target: T5, OPTC
Assay: ELISA

Row | Binder | binding result
19 | B1 | no binding (tested: 1 ug/ml)
20 | B2 | no binding (tested: 1 ug/ml)
21 | B3 | no binding (tested: 1 ug/ml)
